Results published in patent US20200148781A1 (HELMHOLTZ ZENTRUM M NCHEN DEUTSCHES FORSCHUNGSZENTRUM F R …, published 2020).

Biological target: T1, CD73 protein from lysates of U138 glioblastoma cells (human, UniProt P21589 27-549)
T1 construct: Same endogenous protein as m2, but solubilised in cell lysate for immunoprecipitation
T1 sequence (looked up): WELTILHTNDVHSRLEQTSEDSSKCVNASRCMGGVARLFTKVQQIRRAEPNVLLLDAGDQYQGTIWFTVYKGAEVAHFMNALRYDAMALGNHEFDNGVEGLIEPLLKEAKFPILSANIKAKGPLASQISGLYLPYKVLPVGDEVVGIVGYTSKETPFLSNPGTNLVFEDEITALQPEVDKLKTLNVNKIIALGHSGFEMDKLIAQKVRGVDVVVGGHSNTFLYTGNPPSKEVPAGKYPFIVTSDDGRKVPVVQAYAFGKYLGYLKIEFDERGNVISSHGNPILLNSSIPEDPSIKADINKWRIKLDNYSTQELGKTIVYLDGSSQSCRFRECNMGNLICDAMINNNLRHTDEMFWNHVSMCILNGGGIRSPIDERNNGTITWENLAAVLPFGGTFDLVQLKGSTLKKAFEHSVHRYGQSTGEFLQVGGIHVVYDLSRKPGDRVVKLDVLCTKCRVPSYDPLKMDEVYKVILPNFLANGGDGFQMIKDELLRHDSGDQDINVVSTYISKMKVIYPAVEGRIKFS
Test: immunoprecipitation from cell lysate, immunoblot with a commercial CD73 mAb
Protocol: In this example, mAb 22E6 binding affinity was characterized (FIG. 3). It was shown that mAb 22E6 recognizes CD73 protein on cancer cells. Using a special flow cytometry technique, a fluorescence-activated cell sorting (FACS) with 22E6 and an anti-rat-IgG-specific, fluorophore-labeled secondary mAb, it was shown that the protein recognized by the 22E6 mAb of the invention is present on the surface of human cancer cells of a total of approx. 30 tested cell lines. U138 MG and GBM20 are glioblastoma cell lines, MDA-MB231 and T47D are human breast cancer cell lines. In order to compare the specificity of mAb 22E6 with the specificity of a commercial CD73 mAb an immunoblot with the same cell lines (U138 MG, GBM20, MDA-MB231 and T47D) was performed using the commercial CD73 mAb as shown in FIG. 3B.

binding result: binds
B1: mAb 22E6 (antibody, V domains shown)
VH: EVQLVESGGGLVQPGRSMKLSCAASGFTFSFYYMAWVRQAPTKGLEWVASISTGGGNTYYRDSVKGRFTISRDDAKSTLYLQMDSLRSEETATYYCARHGGDYYGYRGGYFDYWDQGVMVTVSS
VL: DIQMTQTPSSMPASLGERVTISCRASQGINNYLNWYQQKPDGTIKPLIYYTSNLQSGVPSRFSGSGSGTDYSLTISSLEPEDFAMYYCQQYDNSPYTFGAGTKLELK
notes: Rat monoclonal antibody from a hybridoma (rats immunized with EVs of the glioblastoma line GBM20); It was detected with an anti-rat-IgG secondary mAb; also called 22E6 mAb; monoclonal antibody termed "22E6"
